Experimental data taken from US20020160482A1, “Methods for protein purification” (priority 2001, published 2002).

T1: purified SSAO protein (recombinant human SSAO) (Homo sapiens, UniProt Q16853)
T1 construct: residues 29-763 of the human SSAO protein cloned from human aorta cDNA; mutated S. japonicum GST (Cys85/138/178 to Ser) with SQSQ spacer and 3C protease site EALFQG (N, cleaved yes); murine IgG1 heavy chain signal peptide (mutated), followed by an 18 amino acid spacer (N, cleaved yes); made in house; host or cells: HEK293 cells stably transfected with pMB887, protein secreted into the medium
T1 sequence (Q16853 29-763): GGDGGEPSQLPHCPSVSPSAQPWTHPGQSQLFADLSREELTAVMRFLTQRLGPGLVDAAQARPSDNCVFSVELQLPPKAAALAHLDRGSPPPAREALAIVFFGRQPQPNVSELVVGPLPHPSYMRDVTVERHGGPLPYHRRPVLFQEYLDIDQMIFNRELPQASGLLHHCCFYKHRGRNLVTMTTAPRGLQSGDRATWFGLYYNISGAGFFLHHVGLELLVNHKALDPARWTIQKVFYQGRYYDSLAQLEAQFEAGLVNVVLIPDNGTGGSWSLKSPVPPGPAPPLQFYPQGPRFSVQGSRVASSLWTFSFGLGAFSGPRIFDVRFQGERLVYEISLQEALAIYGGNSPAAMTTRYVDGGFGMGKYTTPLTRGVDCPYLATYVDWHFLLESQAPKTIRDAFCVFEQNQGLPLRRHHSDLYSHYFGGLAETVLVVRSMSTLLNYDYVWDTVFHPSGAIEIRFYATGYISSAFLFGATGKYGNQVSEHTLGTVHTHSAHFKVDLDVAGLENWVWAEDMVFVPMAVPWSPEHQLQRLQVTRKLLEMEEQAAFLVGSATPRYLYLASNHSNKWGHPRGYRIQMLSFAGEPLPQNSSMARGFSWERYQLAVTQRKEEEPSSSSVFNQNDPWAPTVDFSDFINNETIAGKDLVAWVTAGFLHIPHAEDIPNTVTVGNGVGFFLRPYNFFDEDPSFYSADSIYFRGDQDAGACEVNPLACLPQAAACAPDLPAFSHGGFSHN

B1: SSAO protein: purified soluble recombinant human SSAO (residues 29-763) after removal of the GST fusion partner (protein, listed as Homo sapiens)
chain: T1 sequence (Q16853 29-763)

How the values were obtained:
[1] = molecular target: T1, purified SSAO protein (recombinant human SSAO); assay: Semicarbazide inhibition of benzylamine oxidase activity (spectrophotometric amine oxidase assay); assay type: biochemical; settings: in the presence of 0.1 mM semicarbazide, read-out: benzylamine oxidase activity inhibited
Description: A spectrophotometric assay for monoamine oxidases described by Holt and coworkers (Holt et al., 1997) was used to determine amine oxidase activity in samples from the different purification steps. The assay was performed in 96-well microtiter plates incubated at 37° C. in a SPECTRAmax 250 microplate spectrophotometer (Molecular Devices, Sunnyvale, Calif.). The reagent mix containing 1 mM vanillic acid (Sigma, St. Louis, Mo.), 500 μM 4-aminoantipyrine (Sigma), and 4U ml^−1 peroxidase (type VI from horseradish, Sigma) in 0.2 M potassium phosphate buffer (pH 7.6) was prepared on the same day assays were performed and kept at 5° C. until used. Reactions were started by mixing 50 μl sample, 50 μl reagent mix and 200 μl potassium phosphate buffer with or without 750 μM benzylamine hydrochloride (Sigma) and were performed in triplicate. In order to obtain blank reference values, wells were analyzed with buffer added in place of sample. Absorbance changes were followed at 490 nm for 10-40 minutes. Standard curves were prepared with dilutions of a stock solution of H2O2 in potassium phosphate buffer ranging from 10 nmol/well to 120 nmol/well. When inhibition experiments were carried out, the samples were incubated in 300 μM semicarbazide at 37° C. for 30 minutes, before addition of the benzylamine solution. […]

[2] = Spectrophotometric amine oxidase assay: specific benzylamine oxidase activity of purified proteins; assay type: biochemical, human
Description: A spectrophotometric assay for monoamine oxidases described by Holt and coworkers (Holt et al., 1997) was used to determine amine oxidase activity in samples from the different purification steps. The assay was performed in 96-well microtiter plates incubated at 37° C. in a SPECTRAmax 250 microplate spectrophotometer (Molecular Devices, Sunnyvale, Calif.). The reagent mix containing 1 mM vanillic acid (Sigma, St. Louis, Mo.), 500 μM 4-aminoantipyrine (Sigma), and 4U ml^−1 peroxidase (type VI from horseradish, Sigma) in 0.2 M potassium phosphate buffer (pH 7.6) was prepared on the same day assays were performed and kept at 5° C. until used. Reactions were started by mixing 50 μl sample, 50 μl reagent mix and 200 μl potassium phosphate buffer with or without 750 μM benzylamine hydrochloride (Sigma) and were performed in triplicate. In order to obtain blank reference values, wells were analyzed with buffer added in place of sample. Absorbance changes were followed at 490 nm for 10-40 minutes. Standard curves were prepared with dilutions of a stock solution of H2O2 in potassium phosphate buffer ranging from 10 nmol/well to 120 nmol/well. When inhibition experiments were carried out, the samples were incubated in 300 μM semicarbazide at 37° C. for 30 minutes, before addition of the benzylamine solution.

Molecule	inhibition at 100 µM [1] [%]	specific activity ([2]; after cleavage, flow-through of second glutathione-Sepharose step (cleavage buffer with DTT)) [nmol/min/mg]	specific activity ([2]; after removal of GST fusion partner and diafiltration (final product)) [nmol/min/mg]	specific activity ([2]; per purification step, nmol of H2O2 produced per minute using 0.5 mM benzylamine as substrate, listed as Diafiltrate) [nmol/min/mg]	specific activity ([2]; per purification step, nmol of H2O2 produced per minute using 0.5 mM benzylamine as substrate, listed as GSH-affinity step-2 (flow-through)) [nmol/min/mg]
NNC(N)=O [semicarbazide]	> 95	–	–	–	–
B1	–	522	809	809	522
